± gives the standard deviation of the averaged measurements.
Assay: total protein half-life in vivo (active degradation + dilution); higher = more stable protein
[1] = E. coli NCM3722 delta-clpP, growth: N-lim chemostat, doubling time 6 h
[2] = E. coli NCM3722 delta-hslV, growth: N-lim chemostat, doubling time 6 h
[3] = E. coli NCM3722 delta-lon, growth: N-lim chemostat, doubling time 6 h
[4] = E. coli NCM3722 delta-smpB, growth: N-lim chemostat, doubling time 6 h
[5] = wild type E. coli NCM3722, growth: C-lim chemostat, doubling time 6 h
[6] = wild type E. coli NCM3722, growth: C-lim chemostat, doubling time 12 h
[7] = wild type E. coli NCM3722, growth: N-lim chemostat, doubling time 6 h
[8] = wild type E. coli NCM3722, growth: N-lim chemostat, doubling time 12 h
[9] = wild type E. coli NCM3722, growth: P-lim chemostat, doubling time 6 h
[10] = wild type E. coli NCM3722, growth: P-lim chemostat, doubling time 12 h
[11] = wild type E. coli NCM3722, growth: C-lim chemostat, doubling time 3 h
[12] = E. coli NCM3722 delta-clpP delta-lon delta-hslV, growth: N-lim chemostat, doubling time 6 h

| Sequence | total protein half-life in vivo [1] [h] | total protein half-life in vivo [2] [h] | total protein half-life in vivo [3] [h] | total protein half-life in vivo [4] [h] | total protein half-life in vivo [5] [h] | total protein half-life in vivo [6] [h] | total protein half-life in vivo [7] [h] | total protein half-life in vivo [8] [h] | total protein half-life in vivo [9] [h] | total protein half-life in vivo [10] [h] | total protein half-life in vivo [11] [h] | total protein half-life in vivo [12] [h] |
| --- | --- | --- | --- | --- | --- | --- | --- | --- | --- | --- | --- | --- |
| MEFFKKTALAALVMGFSGAALALPNITILATGGTIAGGGDSATKSNYTVGKVGVENLVNAVPQLKDIANVKGEQVVNIGSQDMNDNVWLTLAKKINTDCDKTDGFVITHGTDTMEETAYFLDLTVKCDKPVVMVGAMRPSTSMSADGPFNLYNAVVTAADKASANRGVLVVMNDTVLDGRDVTKTNTTDVATFKSVNYGPLGYIHNGKIDYQRTPARKHTSDTPFDVSKLNELPKVGIVYNYANASDLPAKALVDAGYDGIVSAGVGNGNLYKSVFDTLATAAKTGTAVVRSSRVPTGATTQDAEVDDAKYGFVASGTLNPQKARVLLQLALTQTKDPQQIQQIFNQY | 5.6 ± 1.2 | 6.41 ± 0.082 | 5.53 ± 0.3 | 6.23 ± 0.81 | 5.38 ± 0.38 | > 16 | 6.03 ± 0.47 | 12.3 ± 0.7 | 6.54 ± 0.46 | 13 ± 0.46 | – | – |
| MAQEYTVEQLNHGRKVYDFMRWDYWAFGISGLLLIAAIVIMGVRGFNWGLDFTGGTVIEITLEKPAEIDVMRDALQKAGFEEPMLQNFGSSHDIMVRMPPAEGETGGQVLGSQVLKVINESTNQNAAVKRIEFVGPSVGADLAQTGAMALMAALLSILVYVGFRFEWRLAAGVVIALAHDVIITLGILSLFHIEIDLTIVASLMSVIGYSLNDSIVVSDRIRENFRKIRRGTPYEIFNVSLTQTLHRTLITSGTTLMVILMLYLFGGPVLEGFSLTMLIGVSIGTASSIYVASALALKLGMKREHMLQQKVEKEGADQPSILP [P0AG93] | – | 6.16 | 5.2883 ± 0.0031 | – | 5.67 ± 0.76 | 8.4 ± 5.1 | – | 10.2 ± 0.42 | 6.06 ± 1 | – | 3.4 ± 0.44 | – |
| MSQHNEKNPHQHQSPLHDSSEAKPGMDSLAPEDGSHRPAAEPTPPGAQPTAPGSLKAPDTRNEKLNSLEDVRKGSENYALTTNQGVRIADDQNSLRAGSRGPTLLEDFILREKITHFDHERIPERIVHARGSAAHGYFQPYKSLSDITKADFLSDPNKITPVFVRFSTVQGGAGSADTVRDIRGFATKFYTEEGIFDLVGNNTPIFFIQDAHKFPDFVHAVKPEPHWAIPQGQSAHDTFWDYVSLQPETLHNVMWAMSDRGIPRSYRTMEGFGIHTFRLINAEGKATFVRFHWKPLAGKASLVWDEAQKLTGRDPDFHRRELWEAIEAGDFPEYELGFQLIPEEDEFKFDFDLLDPTKLIPEELVPVQRVGKMVLNRNPDNFFAENEQAAFHPGHIVPGLDFTNDPLLQGRLFSYTDTQISRLGGPNFHEIPINRPTCPYHNFQRDGMHRMGIDTNPANYEPNSINDNWPRETPPGPKRGGFESYQERVEGNKVRERSPSFGEYYSHPRLFWLSQTPFEQRHIVDGFSFELSKVVRPYIRERVVDQLAHIDLTLAQAVAKNLGIELTDDQLNITPPPDVNGLKKDPSLSLYAIPDGDVKGRVVAILLNDEVRSADLLAILKALKAKGVHAKLLYSRMGEVTADDGTVLPIAATFAGAPSLTVDAVIVPCGNIADIADNGDANYYLMEAYKHLKPIALAGDARKFKATIKIADQGEEGIVEADSADGSFMDELLTLMAAHRVWSRIPKIDKIPA | 6.14 ± 0.56 | 5.76 ± 0.4 | 5.78 ± 0.094 | 5.28 ± 0.077 | 5.76 ± 0.23 | 10.8 ± 0.26 | 5.81 ± 0.24 | 12.3 ± 1.9 | 5.88 ± 0.41 | 11.9 ± 0.53 | 2.79 ± 0.4 | 6.34 ± 0.49 |
| MNTTLFRWPVRVYYEDTDAGGVVYHASYVAFYERARTEMLRHHHFSQQALMAERVAFVVRKMTVEYYAPARLDDMLEIQTEITSMRGTSLVFTQRIVNAENTLLNEAEVLVVCVDPLKMKPRALPKSIVAEFKQ [P0A8Z3] | 6.54 ± 0.91 | 6.41 ± 0.61 | 6.27 ± 0.26 | 5.7 ± 0.13 | 5.99 ± 0.073 | 11.1 ± 2.1 | 5.28 ± 0.094 | 12.3 ± 2.7 | 5.68 ± 0.45 | 12.63 ± 0.092 | – | 5.87 ± 0.51 |
| MSKKIAVLITDEFEDSEFTSPADEFRKAGHEVITIEKQAGKTVKGKKGEASVTIDKSIDEVTPAEFDALLLPGGHSPDYLRGDNRFVTFTRDFVNSGKPVFAICHGPQLLISADVIRGRKLTAVKPIIIDVKNAGAEFYDQEVVVDKDQLVTSRTPDDLPAFNREALRLLGA | 4.34 ± 0.18 | 5.59 ± 1.4 | 5.74 ± 0.21 | 4.51 ± 0.087 | 5.32 ± 0.083 | 9.27 ± 0.35 | 4.72 ± 0.18 | 7.76 ± 0.18 | 5.12 ± 0.29 | 10.6 ± 1.1 | 3.22 ± 0.3 | 6.07 ± 1.3 |
| MHINIAWQDVDTVLLDMDGTLLDLAFDNYFWQKLVPETWGAKNGVTPQEAMEYMRQQYHDVQHTLNWYCLDYWSEQLGLDICAMTTEMGPRAVLREDTIPFLEALKASGKQRILLTNAHPHNLAVKLEHTGLDAHLDLLLSTHTFGYPKEDQRLWHAVAEATGLKAERTLFIDDSEAILDAAAQFGIRYCLGVTNPDSGIAEKQYQRHPSLNDYRRLIPSLM | – | – | 2.37 ± 2.1 | – | 0.971 | – | – | – | 0.56 | 0.544 | 0.973 ± 0.063 | 4.35 ± 0.11 |
| MSSVSTSGSGAPKSSFSFGRIWDQYGMLVVFAVLFIACAIFVPNFATFINMKGLGLAISMSGMVACGMLFCLASGDFDLSVASVIACAGVTTAVVINLTESLWIGVAAGLLLGVLCGLVNGFVIAKLKINALITTLATMQIVRGLAYIISDGKAVGIEDESFFALGYANWFGLPAPIWLTVACLIIFGLLLNKTTFGRNTLAIGGNEEAARLAGVPVVRTKIIIFVLSGLVSAIAGIILASRMTSGQPMTSIGYELIVISACVLGGVSLKGGIGKISYVVAGILILGTVENAMNLLNISPFAQYVVRGLILLAAVIFDRYKQKAKRTV [P0AE26] | – | – | – | – | 4.04 ± 0.19 | 7.44 ± 0.65 | – | – | – | – | 2.54 ± 0.33 | – |
| MQFLNMFFFDIYPYIAGAVFLIGSWLRYDYGQYTWRAASSQMLDRKGMNLASNLFHIGILGIFVGHFFGMLTPHWMYEAWLPIEVKQKMAMFAGGASGVLCLIGGVLLLKRRLFSPRVRATTTGADILILSLLVIQCALGLLTIPFSAQHMDGSEMMKLVGWAQSVVTFHGGASQHLDGVAFIFRLHLVLGMTLFLLFPFSRLIHIWSVPVEYLTRKYQLVRARH | – | – | – | – | – | – | – | > 16 | – | – | – | – |
| MSNQFGDTRIDDDLTLLSETLEEVLRSSGDPADQKYVELKARAEKALDDVKKRVSQASDSYYYRAKQAVYRADDYVHEKPWQGIGVGAAVGLVLGLLLARR [P0AEH5] | – | 6.88 ± 0.34 | > 8 | 5.64 ± 0.42 | 6.46 ± 0.78 | 10.1 ± 0.52 | 5.99 ± 0.7 | 14.8 ± 0.89 | 5.16 ± 1.5 | 12.6 ± 0.4 | – | 6.419 ± 0.022 |

From the supplement of paper PMC11246515
